Test results published in US20140329228A1 (Ushio Denki Kabushiki Kaisha, priority 2011, published 2014).

Key:
Assay type in all cases: binding
[1] = Fluorescence enhancement of fluoro-labeled Fab complex with MDA; conditions: antigen MDA 100 μg/mL versus absence of antigen
[2] = Fluorescence enhancement of fluoro-labeled Fab complex with MDMA; conditions: antigen MDMA 100 μg/mL versus absence of antigen
[3] = Fluorescence enhancement of fluoro-labeled Fab complex / scFv with morphine; conditions: antigen Morphine 100 μg/mL versus absence of antigen
[4] = Fluorescence enhancement of fluoro-labeled Fab complex / scFv with ketamine; conditions: antigen Ketamine 100 μg/mL versus absence of antigen
[5] = Fluorescence enhancement of fluoro-labeled Fab complex with amphetamine; conditions: antigen Amphetamine 100 μg/mL versus absence of antigen
[6] = Fluorescence enhancement of fluoro-labeled Fab complex / scFv with cocaine; conditions: antigen Cocaine 100 μg/mL versus absence of antigen
[7] = Fluorescence enhancement of fluoro-labeled Fab complex / scFv with methamphetamine; conditions: antigen Methamphetamine 100 μg/mL versus absence of antigen

B1: Anti-Methamphetamine: same-color double-label Fab complex of anti-methamphetamine antibody; TAMRA-labeled VL (SEQ ID NO: 25) and VH (SEQ ID NO: 26) (antibody, V domains shown)
VH: QVQLQQSGPELVKPGASVKVSCKASGYPSTRFYIYWVKQSHGKSLEWIGNIDPYNGGTTYNQKFKGKATLTIDKSSTTAYVHLNSLTSEDSAVYYCAGFHYSGQLDTDVWGAGTKVTVSS
VL: DIVMTQSPAFMSASPGEKVTLTCSASSSVSSTFLYWYQQKPGSSPKLWIYSTSNLASGVPSRFSGSGSGTSYSLTINSMEAEDAASYFCHQWSNYPFTFGSGTKLEIKR
modifications: Fab; TAMRA labels; Meth-VH-26; Meth-VL-25
In the case of B1, the “Fluorescence enhancement in the presence of 100 μg/mL antigen” value (from here on “Fluorescence enhancement in the presence”) [1] is reported as 5.6, the “Fluorescence enhancement in the presence” value [2] is reported as 7.2 and the “Fluorescence enhancement in the presence” value [3] is reported as 0.9. For the same molecule, the “Fluorescence enhancement in the presence” value [4] was 1.0, the “Fluorescence enhancement in the presence” value [5] was 6.8 and the “Fluorescence enhancement in the presence” value [6] was 1.0. For the same molecule, the “Fluorescence enhancement in the presence” value [7] was 7.2.
